Publication PMC5214741

Assays:
[1] = molecular target: E. coli F-ATPase subunit c (cysteine-free F-ATPase) (E. coli) (UniProt P68699); test: cryo-EM structure; purified cysteine-free E. coli F-ATPase in digitonin at 3.58 μM, no nucleotides added; three rotational states at 6.9, 7.8 and 8.5 Å; models built by docking crystal, NMR and homology models, side chains pruned to Cα
[2] = molecular target: E. coli F-ATPase subunit b (cysteine-free F-ATPase) (E. coli) (UniProt P0ABA0); test: as above

stoichiometry N [1]	stoichiometry N [2]	Substance
10		E. coli F-ATPase subunit c (cysteine-free F-ATPase) (from UniProt P68699 1-79) (natural protein)
	2	E. coli F-ATPase subunit b (cysteine-free F-ATPase) (from UniProt P0ABA0 2-156) (natural protein)
